Laboratory results: patent US20040086945A1, “Hairless protein-interacting partner complexes and methods thereto” (The Procter & Gamble Company, priority 2002, published 2004)

B1: Human […]-mannosidase: human HRt interacting partner, GenBank U60337, SEQ ID NO:80/81 (protein, UniProt O00462 18-879, looked up)
Beta-mannosidase: AAELSYSLRGNWSICNGNGSLELPGAVPGCVHSALFQQGLIQDSYYRFNDLNYRWVSLDNWTYSKEFKIPFEISKWQKVNLILEGVDTVSKILFNEVTIGETDNMFNRYSFDITNVVRDVNSIELRFQSAVLYAAQQSKAHTRYQVPPDCPPLVQKGECHVNFVRKEQCSFSWDWGPSFPTQGIWKDVRIEAYNICHLNYFTFSPIYDKSAQEWNLEIESTFDVVSSKPVGGQVIVAIPKLQTQQTYSIELQPGKRIVELFVNISKNITVETWWPHGHGNQTGYNMTVLFELDGGLNIEKSAKVYFRTVELIEEPIKGSPGLSFYFKINGFPIFLKGSNWIPADSFQDRVTSELLRLLLQSVVDANMNTLRVWGGGIYEQDEFYELCDELGIMVWQDFMFACALYPTDQGFLDSVTAEVAYQIKRLKSHPSIIIWSGNNENEEALMMNWYHISFTDRPIYIKDYVTLYVKNIRELVLAGDKSRPFITSSPTNGAETVAEAWVSQNPNSNYFGDVHFYDYISDCWNWKVFPKARFASEYGYQSWPSFSTLEKVSSTEDWSFNSKFSLHRQHHEGGNKQMLYQAGLHFKLPQSTDPLRTFKDTIYLTQVMQAQCVKTETEFYRRSRSEIVDQQGHTMGALYWQLNDIWQAPSWASLEYGGKWKMLHYFAQNFFAPLLPVGFENENTFYIYGVSDLHSDYSMTLSVRVHTWSSLEPVCSRVTERFVMKGGEAVCLYEEPVSELLRRCGNCTRESCVVSFYLSADHELLSPTNYHFLSSPKEAVGLCKAQITAIISQQGDIFVFDLETSAVAPFVWLDVGSIPGRFSDNGFLMTEKTRTILFYPWEPTSKNELEQSFHVTSLTDIY
B2: Human cDNA FLJ20109 fis clone COL05067: human HRt interacting partner, GenBank BC009472, SEQ ID NO:72/73 (protein, listed as Homo sapiens)
chain: VASPPVPCSAAFRSLHISVARDLKMRLHLLLLLALCGAGTTAAELSYSLRGNWSICNGNGSLELPGAVPGCVHSALFQ
B3: Human neuronal membrane glycoprotein M6b1: human HRt interacting partner, GenBank AF016004, SEQ ID NO:56 (protein, UniProt Q13491 1-265, looked up)
Neuronal membrane …: MKPAMETAAEENTEQSQERKGCFECCIKCLGGVPYASLVATILCFSGVALFCGCGHVALAGTVAILEQHFSTNASDHALLSEVIQLMQYVIYGIASFFFLYGIILLAEGFYTTSAVKELHGEFKTTACGRCISGMFVFLTYVLGVAWLGVFGFSAVPVFMFYNIWSTCEVIKSPQTNGTTGVEQICVDIRQYGIIPWNAFPGKICGSALENICNTNEFYMSYHLFIVACAGAGATVIALLIYMMATTYNYAVLKFKSREDCCTKF
B4: Human splicing factor (CC1.4): human HRt interacting partner, GenBank L10911, SEQ ID NO:59/60 (protein, listed as Homo sapiens)
chain: EFAAASTTAPVIIFVSKMFAVDAKALPQNKPRPLTQEEIAQRRERARQRHAEKLAAAQGQAPLEPTQDGSAIETCPKGEEPRGDEQQVESMTPKPVLQEENNQESFIAFARVFSGVARRGKKIFVLGPKYSPLEFLRRVPLGFSAPPDGLPQVPHMAYCALENLYLLMGRELEYLEEVPPGNVLGIGGLQDFVLKSATLCSLPSCPPFIPLNFEATPIVRVAVEPKHPSEMPQLVKG
B5: Human metallothionein from cadmium-treated cells: human HRt interacting partner, GenBank V00594, SEQ ID NO:3/4 (protein, listed as Homo sapiens)
chain: VPANPRATCPDSSRLFSSPWIPTAPAPPVTPAPAPAPANAKSANAPPARKAAAPAALWAVPSVPRAASAKGRRTSAAAAPDAGTAPLPDVKNATSTNLDFLCTTLTVTVCYIPFSMK
B6: Human MDC15: human HRt interacting partner, GenBank U46005, SEQ ID NO:77 (protein, listed as Homo sapiens)
chain: LGLQWHADGRLTKKLNGLADLEACIKTLHGQGFSQPSLTTLTAFSVEGCLQEHCVILIQSW
B7: Human transcription factor Y, gamma: human HRt interacting partner, GenBank BC005003, SEQ ID NO:53/54 (protein, UniProt Q13952 1-458, looked up)
Nuclear transcription factor …: MSTEGGFGGTSSSDAQQSLQSFWPRVMEEIRNLTVKDFRVQELPLARIKKIMKLDEDVKMISAEAPVLFAKAAQIFITELTLRAWIHTEDNKRRTLQRNDIAMAITKFDQFDFLIDIVPRDELKPPKRQEEVRQSVTPAEPVQYYFTLAQQPTAVQVQGQQQGQQTTSSTTTIQPGQIIIAQPQQGQTTPVTMQVGEGQQVQIVQAQPQGQAQQAQSGTGQTMQVMQQIITNTGEIQQIPVQLNAGQLQYIRLAQPVSGTQVVQGQIQTLATNAQQGQRNASQGKPRRCLKETLQITQTEVQQGQQQFSQFTDGQRNSVQQARVSELTGEAEPREVKATGNSTPCTSSLPTTHPPSHRAGASCVCCSQPQQSSTSPPPSDALQWVVVEVSGTPNQLETHRELHAPLPGMTSLSPLHPSQQLYQIQQVTMPAGQDLAQPMFIQSANQPSDGQAPQVTGD
B8: Human PACE4 (SPC4): human HRt interacting partner, GenBank AB001899, SEQ ID NO:69 (protein, UniProt P29122 150-969, looked up)
Proprotein convertase …: QVRSDPQALYFNDPIWSNMWYLHCGDKNSRCRSEMNVQAAWKRGYTGKNVVVTILDDGIERNHPDLAPNYDSYASYDVNGNDYDPSPRYDASNENKHGTRCAGEVAASANNSYCIVGIAYNAKIGGIRMLDGDVTDVVEAKSLGIRPNYIDIYSASWGPDDDGKTVDGPGRLAKQAFEYGIKKGRQGLGSIFVWASGNGGREGDYCSCDGYTNSIYTISVSSATENGYKPWYLEECASTLATTYSSGAFYERKIVTTDLRQRCTDGHTGTSVSAPMVAGIIALALEANSQLTWRDVQHLLVKTSRPAHLKASDWKVNGAGHKVSHFYGFGLVDAEALVVEAKKWTAVPSQHMCVAASDKRPRSIPLVQVLRTTALTSACAEHSDQRVVYLEHVVVRTSISHPRRGDLQIYLVSPSGTKSQLLAKRLLDLSNEGFTNWEFMTVHCWGEKAEGQWTLEIQDLPSQVRNPEKQGKLKEWSLILYGTAEHPYHTFSAHQSRSRMLELSAPELEPPKAALSPSQVEVPEDEEDYTAQSTPGSANILQTSVCHPECGDKGCDGPNADQCLNCVHFSLGSVKTSRKCVSVCPLGYFGDTAARRCRRCHKGCETCSSRAATQCLSCRRGFYHHQEMNTCVTLCPAGFYADESQKNCLKCHPSCKKCVDEPEKCTVCKEGFSLARGSCIPDCEPGTYFDSELIRCGECHHTCGTCVGPGREECIHCAKNFHFHDWKCVPACGEGFYPEEMPGLPHKVCRRCDENCLSCAGSSRNCSRCKTGFTQLGTSCITNHTCSNADETFCEMVKSNRLCERKLFIQFCCRTCLLAG

target: T1, mouse HRt (hairless protein aa 490-1182) (Mus musculus, UniProt Q61645); assay: Yeast two-hybrid screen of BD-HRt against human brain cDNA library in AD vector, lacZ coloration on QDO-Xgal plates; format: cell-based; settings: BD-HRt(mouse) x human brain cDNA library in AD-vector
T1 construct: HR cDNA corresponding to the C-terminal half of HR protein (aa residues 490 to 1182, hereinafter HRt); expressed in transfected cells; host or cells: Saccharomyces cerevisiae PJ69-2A transformed with BD-HRt plasmid, mated with Y187 carrying the human brain cDNA library in pACT2
T1 sequence (Q61645 490-1182): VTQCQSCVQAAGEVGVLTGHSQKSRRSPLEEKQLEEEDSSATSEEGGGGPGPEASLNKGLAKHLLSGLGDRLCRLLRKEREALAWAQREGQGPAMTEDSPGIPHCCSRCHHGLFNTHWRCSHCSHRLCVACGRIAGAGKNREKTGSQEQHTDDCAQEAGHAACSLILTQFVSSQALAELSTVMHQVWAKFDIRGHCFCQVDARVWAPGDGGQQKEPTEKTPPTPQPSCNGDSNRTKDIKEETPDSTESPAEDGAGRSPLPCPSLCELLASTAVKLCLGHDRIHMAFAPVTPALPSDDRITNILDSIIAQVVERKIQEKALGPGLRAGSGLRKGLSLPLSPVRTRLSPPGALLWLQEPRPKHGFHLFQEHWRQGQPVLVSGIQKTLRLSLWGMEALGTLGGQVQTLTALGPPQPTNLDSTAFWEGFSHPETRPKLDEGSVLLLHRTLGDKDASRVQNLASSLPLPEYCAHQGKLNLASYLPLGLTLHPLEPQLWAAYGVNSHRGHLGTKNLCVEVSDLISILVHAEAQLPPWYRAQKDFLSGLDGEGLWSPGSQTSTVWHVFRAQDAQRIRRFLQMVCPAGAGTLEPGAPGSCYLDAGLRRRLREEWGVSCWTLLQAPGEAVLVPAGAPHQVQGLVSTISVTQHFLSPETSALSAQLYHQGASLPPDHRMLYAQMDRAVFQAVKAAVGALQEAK
Text: The present example provides for Hairless Protein (HR) interacting partners (HR-IP) using the yeast two-hybrid technology. […] Yeast cells expressing BD-HRt are mated with yeast cells pretransformed with human brain cDNA library in the activation domain (AD) vector.
Cloning of HRt into GAL4 binding domain (BD) yeast two-hybrid (Y2H) vector: The HRt insert from pET32a-HRt is excised as an Eco RI-Xho I fragment (there is a unique Xho I site just adjacent to HRt insert) and inserted at the Eco RI-Sal I sites of Y2H-BD vector pGBKT7 (Catalog No. K1612-B; a component of Matchmaker two-hybrid System 3 (Catalog No. K1612-1) BD Biosciences Clontech, Palo Alto, Calif.) to obtain pGBKT7-HRt in which HRt is fused in-frame to GAL 4 DNA BD (this plasmid is also designated BD-HRt).
Pretransformed human brain […] cDNA Library Screen for HRt interaction partners: Pretransformed human brain […] high-complexity GAL4 cDNA library that has already been amplified and introduced into yeast strain Y187 (MATα) is used to screen for HRt interacting proteins. […] The library host strain Y187 provides a third reporter gene (lacZ) for optional quantification of signal strength. The protocol as described in Clontech user manual (PT3183-1) is used. Briefly, the library is mixed with PJ69-2A strain that has been transformed with the BD-HRt plasmid in YPD medium containing adenine hemisulfate (0.004%) and kanamycin (0.005%) and incubated for 20-24 h at 30° C. The next day, the mating mixture is plated on Leu, Trp, His TDO that selects for two-hybrid interactions, and then the positive clones are screened for growth on Leu, Trp, His, Ade QDO, which is a more stringent condition for interaction. Colonies that grew well on QDO are also screened for lacZ expression by streaking on QDO-Xgal plates. Based on a visual assessment of colonies for the intensity of blue color, the clones are classified into high (H), medium (M), low (L) or very low (VL) categories.
The positive clones are expected to contain an AD-IP (interacting partner) that interacts with BD-HRt. To characterize IP, the sequence of IP is determined and matched to the human genome database. For this purpose, total DNA is isolated from the positive clones and PCR amplified with […] AD LD (long distance)-insert screening amplimers (Catalog No.9103-1; BD Biosciences Clontech, PaloAlto, Calif.). Reaction is conducted in 50 μl volume for 35 cycles using the conditions recommended with the Advantage2 PCR kit (Catalog No. K1910-1; BD Biosciences Clontech, PaloAlto, Calif.).

Question: With B1 as the molecule, how does the “XGAL (rate and intensity of coloration of colonies on Xgal)” value (“XGAL” below) read?
Answer: L (L = Low blue in 5-7 days)

Question: B2 was tested. Which “XGAL” value did it give?
Answer: L (L = Low blue in 5-7 days)

Question: How did the “XGAL” value turn out when B3 was run?
Answer: L (L = Low blue in 5-7 days)

Question: Which “XGAL” value does the source give for B4 here?
Answer: L/VL

Question: With B5 as the molecule, how does the “XGAL” value read?
Answer: H (H = Intense blue within 2-3 days)

Question: How did the “XGAL” value turn out when B6 was run?
Answer: L (L = Low blue in 5-7 days)

Question: With B7 as the molecule, how does the “XGAL” value read?
Answer: L (L = Low blue in 5-7 days)

Question: B8 was tested. Which “XGAL” value did it give?
Answer: L (L = Low blue in 5-7 days)
